Consider 17 molecules from patent publication US20260184748A1, “COMPOSITIONS COMPRISING OCTADECANEUROPEPTIDES (ODN) AND SYNTHETIC DERIVATIVES THEREOF AND METHODS OF USE FOR MODULATION OF FOOD INTAKE, OBESITY, BODY WEIGHT, NAUSEA, AND EMESIS” (The Trustees of the University of Pennsylvania, priority 2022, published 2026).

Where no end group is shown, it is not given here.

What all share (assay): cell-based or functional assay
For experiment [1], the target named is T1, CCR4 (UniProt P51679).
T1 sequence (looked up): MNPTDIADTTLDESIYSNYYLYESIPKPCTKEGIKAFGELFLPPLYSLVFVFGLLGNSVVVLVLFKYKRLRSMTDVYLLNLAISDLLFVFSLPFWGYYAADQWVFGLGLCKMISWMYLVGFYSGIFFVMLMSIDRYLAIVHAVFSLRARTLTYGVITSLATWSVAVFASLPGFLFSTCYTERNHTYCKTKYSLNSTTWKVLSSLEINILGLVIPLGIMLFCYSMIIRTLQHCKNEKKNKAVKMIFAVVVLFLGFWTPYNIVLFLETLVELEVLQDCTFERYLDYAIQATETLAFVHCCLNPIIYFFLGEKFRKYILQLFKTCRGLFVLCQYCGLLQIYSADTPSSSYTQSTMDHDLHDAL

Experiment [2] has as its target PROKR1 (UniProt Q8TCW9).
For experiment [3], the target named is PROKR2 (UniProt Q8NFJ6).
Experiment [4] has as its target PPYR1 (UniProt P50391).
Experiment [5] deals with CXCR6 (UniProt O00574).
Experiment [6] deals with T2, NPSR1B (UniProt Q6W5P4).
T2 sequence (looked up): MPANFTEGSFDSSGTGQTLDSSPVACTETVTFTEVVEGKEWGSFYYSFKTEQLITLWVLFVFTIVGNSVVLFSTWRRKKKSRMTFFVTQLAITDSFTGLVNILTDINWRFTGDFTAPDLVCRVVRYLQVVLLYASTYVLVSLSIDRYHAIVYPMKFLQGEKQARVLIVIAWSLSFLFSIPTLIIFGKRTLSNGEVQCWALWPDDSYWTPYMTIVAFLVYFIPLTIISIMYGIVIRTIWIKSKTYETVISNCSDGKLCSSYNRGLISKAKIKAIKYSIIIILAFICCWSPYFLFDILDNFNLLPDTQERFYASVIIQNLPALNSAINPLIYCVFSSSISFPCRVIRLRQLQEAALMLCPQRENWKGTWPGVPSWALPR

Experiment [7] has as its target NMU1R (UniProt Q9HB89).
Experiment [8] has as its target MCHR2 (UniProt Q969V1).
Experiment [9] addresses MCHR1 (UniProt Q99705).
The target in experiment [10] is F2R, P25116.
Experiment [11] has as its target GPR103 (UniProt Q96P65).
Experiment [12] concerns the target CXCR3 (UniProt P49682).
Experiment [13] deals with T3, NPBWR1 (UniProt P48145).
T3 sequence (looked up): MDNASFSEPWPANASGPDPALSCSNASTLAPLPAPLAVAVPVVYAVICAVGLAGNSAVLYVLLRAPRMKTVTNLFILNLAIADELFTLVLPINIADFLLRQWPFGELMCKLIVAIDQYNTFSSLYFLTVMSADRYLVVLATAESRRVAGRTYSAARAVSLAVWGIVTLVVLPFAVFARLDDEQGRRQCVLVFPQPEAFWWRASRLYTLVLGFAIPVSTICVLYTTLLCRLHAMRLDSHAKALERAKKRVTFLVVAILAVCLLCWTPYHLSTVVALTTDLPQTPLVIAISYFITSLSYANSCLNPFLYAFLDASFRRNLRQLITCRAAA

The target in experiment [14] is NPBWR2 (UniProt P48146).
The target of experiment [15] is CCR8 (UniProt P51685).
The target in experiment [16] is T4, UTR2 (UniProt Q9UKP6).
T4 sequence (looked up): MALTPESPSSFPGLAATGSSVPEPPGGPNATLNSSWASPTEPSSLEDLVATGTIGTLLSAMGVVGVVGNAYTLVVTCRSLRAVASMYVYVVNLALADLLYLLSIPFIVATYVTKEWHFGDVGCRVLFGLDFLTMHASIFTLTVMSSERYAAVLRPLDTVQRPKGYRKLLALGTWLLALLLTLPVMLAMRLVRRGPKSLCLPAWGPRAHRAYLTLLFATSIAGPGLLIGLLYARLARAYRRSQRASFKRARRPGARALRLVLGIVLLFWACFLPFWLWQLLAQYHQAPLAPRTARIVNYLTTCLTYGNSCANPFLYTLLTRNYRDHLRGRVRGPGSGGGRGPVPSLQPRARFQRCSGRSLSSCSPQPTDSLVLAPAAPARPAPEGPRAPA

The target of experiment [17] is DRD2L, P14416.
For experiment [18], the target named is T5, CRHR2 (UniProt Q13324).
T5 sequence (looked up): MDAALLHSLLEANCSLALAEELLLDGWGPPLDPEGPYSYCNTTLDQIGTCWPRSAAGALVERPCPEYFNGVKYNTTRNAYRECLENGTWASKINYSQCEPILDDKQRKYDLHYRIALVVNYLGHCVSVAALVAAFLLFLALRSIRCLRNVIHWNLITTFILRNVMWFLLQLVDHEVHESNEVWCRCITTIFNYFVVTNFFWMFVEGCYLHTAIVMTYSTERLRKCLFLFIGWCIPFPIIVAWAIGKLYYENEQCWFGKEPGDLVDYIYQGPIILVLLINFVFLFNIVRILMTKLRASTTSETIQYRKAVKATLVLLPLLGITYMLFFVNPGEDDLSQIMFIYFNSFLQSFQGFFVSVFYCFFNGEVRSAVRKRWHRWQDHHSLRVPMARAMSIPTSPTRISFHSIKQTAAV

In experiment [19] the target is CRHR1 (UniProt P34998).
Experiment [20] concerns the target CXCR5 (UniProt P32302).
The target in experiment [21] is T6, CCR10 (UniProt P46092).
T6 sequence (looked up): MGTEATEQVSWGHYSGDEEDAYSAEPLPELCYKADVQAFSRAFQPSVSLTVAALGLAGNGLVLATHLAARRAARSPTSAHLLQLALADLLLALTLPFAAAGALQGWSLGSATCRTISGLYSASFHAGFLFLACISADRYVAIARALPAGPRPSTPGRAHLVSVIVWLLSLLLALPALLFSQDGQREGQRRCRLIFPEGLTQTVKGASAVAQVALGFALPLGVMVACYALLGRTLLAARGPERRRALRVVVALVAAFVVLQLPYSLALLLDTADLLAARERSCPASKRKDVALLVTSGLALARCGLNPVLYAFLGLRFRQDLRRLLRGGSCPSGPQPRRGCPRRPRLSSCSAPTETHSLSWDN

Chain of F2R, P25116 (P25116 22-425): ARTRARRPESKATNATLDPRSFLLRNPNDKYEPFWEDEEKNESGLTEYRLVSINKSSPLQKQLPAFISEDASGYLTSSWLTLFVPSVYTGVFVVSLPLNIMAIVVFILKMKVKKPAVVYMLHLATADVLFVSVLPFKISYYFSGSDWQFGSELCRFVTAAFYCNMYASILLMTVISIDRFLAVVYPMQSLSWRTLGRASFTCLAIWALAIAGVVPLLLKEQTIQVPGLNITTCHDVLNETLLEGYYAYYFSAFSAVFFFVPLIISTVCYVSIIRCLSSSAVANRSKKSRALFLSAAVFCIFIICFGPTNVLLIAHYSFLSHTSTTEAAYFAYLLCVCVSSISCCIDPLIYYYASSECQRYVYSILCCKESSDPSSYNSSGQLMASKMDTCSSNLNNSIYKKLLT
Chain of PROKR2 (Q8NFJ6 whole entry): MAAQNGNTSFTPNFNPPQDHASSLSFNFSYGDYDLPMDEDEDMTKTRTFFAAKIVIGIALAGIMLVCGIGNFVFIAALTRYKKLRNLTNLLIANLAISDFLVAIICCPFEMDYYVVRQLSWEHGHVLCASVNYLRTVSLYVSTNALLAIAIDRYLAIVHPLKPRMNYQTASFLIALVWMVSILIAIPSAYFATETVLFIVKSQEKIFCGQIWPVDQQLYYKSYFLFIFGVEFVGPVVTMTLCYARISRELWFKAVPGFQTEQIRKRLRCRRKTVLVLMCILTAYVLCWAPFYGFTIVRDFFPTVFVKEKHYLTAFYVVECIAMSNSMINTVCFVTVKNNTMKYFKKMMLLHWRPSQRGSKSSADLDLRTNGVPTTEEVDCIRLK
Chain of MCHR2 (Q969V1 whole entry): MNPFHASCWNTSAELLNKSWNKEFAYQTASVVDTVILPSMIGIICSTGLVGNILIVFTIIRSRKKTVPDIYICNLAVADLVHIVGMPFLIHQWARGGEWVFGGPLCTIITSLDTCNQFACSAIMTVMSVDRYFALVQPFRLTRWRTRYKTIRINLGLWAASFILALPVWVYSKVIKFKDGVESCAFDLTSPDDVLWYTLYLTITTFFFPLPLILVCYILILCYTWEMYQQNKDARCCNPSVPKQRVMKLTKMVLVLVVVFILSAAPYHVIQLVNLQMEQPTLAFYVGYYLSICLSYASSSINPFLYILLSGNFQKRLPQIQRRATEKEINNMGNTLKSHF
Chain of PROKR1 (Q8TCW9 whole entry): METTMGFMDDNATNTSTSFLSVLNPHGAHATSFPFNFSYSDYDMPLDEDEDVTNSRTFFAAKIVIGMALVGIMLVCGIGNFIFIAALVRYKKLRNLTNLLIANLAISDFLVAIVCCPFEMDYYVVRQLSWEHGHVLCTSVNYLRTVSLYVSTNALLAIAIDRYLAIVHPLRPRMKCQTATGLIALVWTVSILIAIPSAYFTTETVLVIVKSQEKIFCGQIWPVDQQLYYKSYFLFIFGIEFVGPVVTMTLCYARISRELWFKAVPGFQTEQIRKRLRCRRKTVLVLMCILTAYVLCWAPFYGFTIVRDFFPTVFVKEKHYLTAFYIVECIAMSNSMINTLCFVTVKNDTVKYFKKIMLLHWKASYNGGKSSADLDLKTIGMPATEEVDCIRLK
Chain of NMU1R (Q9HB89 whole entry): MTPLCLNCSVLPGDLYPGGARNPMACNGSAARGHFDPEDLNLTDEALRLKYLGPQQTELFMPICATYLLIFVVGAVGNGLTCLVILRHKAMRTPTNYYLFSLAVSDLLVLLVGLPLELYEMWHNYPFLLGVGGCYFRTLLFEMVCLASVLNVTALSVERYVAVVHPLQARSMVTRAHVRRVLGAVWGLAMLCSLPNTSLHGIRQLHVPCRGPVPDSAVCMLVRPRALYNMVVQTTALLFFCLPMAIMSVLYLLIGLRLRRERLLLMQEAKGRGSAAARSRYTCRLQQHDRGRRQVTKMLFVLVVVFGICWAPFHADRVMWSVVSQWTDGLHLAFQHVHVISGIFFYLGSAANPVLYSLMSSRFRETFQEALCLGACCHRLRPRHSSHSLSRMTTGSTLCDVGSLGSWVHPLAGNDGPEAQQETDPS
Chain of GPR103 (Q96P65 whole entry): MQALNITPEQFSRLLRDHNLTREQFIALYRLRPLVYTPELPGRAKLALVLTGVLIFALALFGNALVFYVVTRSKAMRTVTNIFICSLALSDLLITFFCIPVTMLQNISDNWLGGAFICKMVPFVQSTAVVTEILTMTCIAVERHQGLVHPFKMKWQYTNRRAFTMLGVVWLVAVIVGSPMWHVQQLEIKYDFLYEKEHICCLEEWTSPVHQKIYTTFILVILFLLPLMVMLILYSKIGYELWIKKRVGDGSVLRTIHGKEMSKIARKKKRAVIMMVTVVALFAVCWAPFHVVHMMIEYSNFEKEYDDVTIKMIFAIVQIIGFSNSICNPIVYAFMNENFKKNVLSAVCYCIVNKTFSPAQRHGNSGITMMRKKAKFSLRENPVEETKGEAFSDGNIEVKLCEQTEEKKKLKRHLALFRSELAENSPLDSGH
Chain of CXCR6 (O00574 whole entry): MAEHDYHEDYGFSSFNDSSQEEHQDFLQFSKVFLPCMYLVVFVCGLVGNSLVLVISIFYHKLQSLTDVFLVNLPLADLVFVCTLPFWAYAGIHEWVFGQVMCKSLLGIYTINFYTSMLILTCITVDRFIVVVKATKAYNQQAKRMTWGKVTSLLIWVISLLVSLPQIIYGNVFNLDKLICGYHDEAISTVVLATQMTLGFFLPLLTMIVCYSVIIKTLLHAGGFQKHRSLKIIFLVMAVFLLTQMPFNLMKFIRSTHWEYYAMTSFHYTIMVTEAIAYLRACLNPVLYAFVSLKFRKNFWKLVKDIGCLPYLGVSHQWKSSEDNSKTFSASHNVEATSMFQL
Chain of CXCR3 (P49682 whole entry): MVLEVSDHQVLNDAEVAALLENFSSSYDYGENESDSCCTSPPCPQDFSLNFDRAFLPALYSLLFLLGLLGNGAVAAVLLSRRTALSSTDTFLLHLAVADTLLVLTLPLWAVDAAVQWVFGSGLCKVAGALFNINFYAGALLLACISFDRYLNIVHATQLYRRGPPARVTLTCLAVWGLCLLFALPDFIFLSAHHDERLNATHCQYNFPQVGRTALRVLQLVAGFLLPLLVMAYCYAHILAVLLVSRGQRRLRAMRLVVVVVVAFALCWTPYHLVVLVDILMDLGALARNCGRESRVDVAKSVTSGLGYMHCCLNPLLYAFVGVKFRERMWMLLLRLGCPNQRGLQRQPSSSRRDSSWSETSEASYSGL
Chain of CXCR5 (P32302 whole entry): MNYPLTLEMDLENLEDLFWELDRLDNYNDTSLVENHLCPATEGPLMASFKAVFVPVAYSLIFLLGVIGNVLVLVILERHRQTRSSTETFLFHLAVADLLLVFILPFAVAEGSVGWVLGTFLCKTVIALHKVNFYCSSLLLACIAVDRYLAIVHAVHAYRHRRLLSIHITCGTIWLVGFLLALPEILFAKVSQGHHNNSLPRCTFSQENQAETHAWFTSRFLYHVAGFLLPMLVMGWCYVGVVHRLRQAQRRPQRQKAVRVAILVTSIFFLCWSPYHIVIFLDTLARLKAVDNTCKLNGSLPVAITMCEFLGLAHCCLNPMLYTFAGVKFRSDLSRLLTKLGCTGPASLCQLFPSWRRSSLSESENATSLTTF
Chain of NPBWR2 (P48146 whole entry): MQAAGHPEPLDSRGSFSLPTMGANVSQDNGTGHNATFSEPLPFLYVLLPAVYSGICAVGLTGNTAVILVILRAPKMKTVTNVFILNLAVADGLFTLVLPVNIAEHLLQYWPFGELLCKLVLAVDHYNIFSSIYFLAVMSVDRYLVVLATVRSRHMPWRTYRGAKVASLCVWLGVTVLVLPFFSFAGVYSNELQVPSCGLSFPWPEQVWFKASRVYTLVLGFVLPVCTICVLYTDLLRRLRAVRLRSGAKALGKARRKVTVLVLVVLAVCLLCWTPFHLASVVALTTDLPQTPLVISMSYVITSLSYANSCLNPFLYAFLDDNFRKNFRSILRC
Chain of CRHR1 (P34998 24-415 limits assumed): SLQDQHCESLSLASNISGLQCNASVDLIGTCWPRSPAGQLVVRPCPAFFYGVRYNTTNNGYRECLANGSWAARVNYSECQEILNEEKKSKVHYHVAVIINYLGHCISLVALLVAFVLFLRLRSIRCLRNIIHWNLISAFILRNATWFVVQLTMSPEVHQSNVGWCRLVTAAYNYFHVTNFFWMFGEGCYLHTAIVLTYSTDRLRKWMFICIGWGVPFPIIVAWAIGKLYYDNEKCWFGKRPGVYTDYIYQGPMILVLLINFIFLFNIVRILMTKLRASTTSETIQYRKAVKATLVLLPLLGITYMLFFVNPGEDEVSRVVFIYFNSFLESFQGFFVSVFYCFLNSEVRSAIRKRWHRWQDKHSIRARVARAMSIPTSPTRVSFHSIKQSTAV
Chain of MCHR1 (Q99705 whole entry): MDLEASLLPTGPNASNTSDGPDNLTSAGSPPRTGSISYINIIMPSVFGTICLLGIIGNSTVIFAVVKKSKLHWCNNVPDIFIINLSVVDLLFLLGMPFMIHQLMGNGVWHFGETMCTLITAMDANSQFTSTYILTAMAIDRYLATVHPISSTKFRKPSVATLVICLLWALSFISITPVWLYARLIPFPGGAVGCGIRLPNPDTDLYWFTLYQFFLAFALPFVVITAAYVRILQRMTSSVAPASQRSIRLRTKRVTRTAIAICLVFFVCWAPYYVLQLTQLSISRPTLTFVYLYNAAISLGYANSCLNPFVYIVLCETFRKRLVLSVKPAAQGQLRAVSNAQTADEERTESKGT
Chain of PPYR1 (P50391 whole entry): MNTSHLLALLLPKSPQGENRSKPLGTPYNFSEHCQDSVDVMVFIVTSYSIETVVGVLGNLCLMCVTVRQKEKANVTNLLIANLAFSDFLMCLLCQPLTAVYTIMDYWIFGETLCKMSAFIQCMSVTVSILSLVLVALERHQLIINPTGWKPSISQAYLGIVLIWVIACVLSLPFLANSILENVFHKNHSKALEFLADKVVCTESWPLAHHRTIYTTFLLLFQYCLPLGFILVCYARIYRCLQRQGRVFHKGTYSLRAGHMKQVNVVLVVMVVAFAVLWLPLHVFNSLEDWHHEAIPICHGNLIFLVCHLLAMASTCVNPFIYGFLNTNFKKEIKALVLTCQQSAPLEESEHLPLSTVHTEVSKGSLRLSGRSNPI

B1: CCL22 (ligand, UniProt O00626 25-93, looked up)
chain: GPYGANMEDSVCCRDYVRYRLPLRVVKHFYWTSDSCPRPGVVLLTFRDKEICADPRVPWVKMILNKLSQ
In experiment [1], B1 displayed an EC50 (RC50), arrestin, agonist mode of 3.44 nM and an EC80, arrestin, agonist mode of 19.7 nM.

B2: EG VEGF (ligand, UniProt P58294 20-105, looked up)
chain: AVITGACERDVQCGAGTCCAISLWLRGLRMCTPLGREGEECHPGSHKVPFFRKRKHHTCPCLPNLLCSRFPDGRYRCSMDLKNINF
In experiment [2], B2 showed an EC50 (RC50), arrestin, agonist mode of 17.7 nM and an EC80, arrestin, agonist mode of 53.7 nM. In experiment [3], this molecule showed an EC50 (RC50), arrestin, agonist mode of 10.6 nM and an EC80, arrestin, agonist mode of 30 nM.

Take APLEPVYPGDNATPEQMAQYAADLRRYINMLTRPRY (peptide, UniProt P01298 30-65, looked up) [Pancreatic Polypeptide]: in experiment [4], the EC50 (RC50), arrestin, agonist mode came to 1.5 nM and the EC80, arrestin, agonist mode stood at 5 nM.

B3: CXCL16 (ligand, UniProt Q9H2A7 30-118, looked up)
chain: NEGSVTGSCYCGKRISSDSPPSVQFMNRLRKHLRAYHRCLYYTRFQLLSWSVCGGNKDPWVQELMSCLDLKECGHAYSGIVAHQKHLLP
In experiment [5], B3 came in with an EC50 (RC50), arrestin, agonist mode of 6.81 nM and an EC80, arrestin, agonist mode of 21 nM.

In [6], SFRNGVGTGMKKTSFQRAKS (peptide, UniProt P0C0P6 70-89, looked up) [Neuropeptide S] showed an EC50 (RC50), arrestin, agonist mode of 23.6 nM and an EC80, arrestin, agonist mode of 45.4 nM.

In experiment [7], FRVDEEFQSPFASQSRGYFLFRPRN (peptide, UniProt P48645 142-166, looked up) [Neuromedin U-25] showed an EC50 (RC50), arrestin, agonist mode of 1.43 nM and an EC80, arrestin, agonist mode of 3.68 nM.

In experiment [8], DFDMLRCMLGRVYRPCWQV (peptide, UniProt P20382 147-165, looked up) [MCH] showed an EC50 (RC50), arrestin, agonist mode of 5.51 nM and an EC80, arrestin, agonist mode of 20.2 nM. In [9], this molecule returned an EC50 (RC50), arrestin, agonist mode of 167 nM and an EC80, arrestin, agonist mode of 444 nM.

For TFLLR-NH2 [TFLLR-NH2], in experiment [10], the EC50 (RC50), arrestin, agonist mode was found to be 14500 nM and the EC80, arrestin, agonist mode is 28700 nM.

Take TSGPLGNLAEELNGYSRKKGGFSFRF (peptide, UniProt P83859 108-133, looked up) [QRFP-26]: in experiment [11], the EC50 (RC50), arrestin, agonist mode is 10 nM and the EC80, arrestin, agonist mode is 27.1 nM.

B4: CXCL11 (ligand, UniProt O14625 22-94, looked up)
chain: FPMFKRGRCLCIGPGVKAVKVADIEKASIMYPSNNCDKIEVIITLKENKGQRCLNPKSKQARLIIKKVERKNF
B4: in experiment [12], the EC50 (RC50), arrestin, agonist mode is 12 nM and the EC80, arrestin, agonist mode is 17.9 nM.

Take WYKHVASPRYHTVGRAAGLLMGL (peptide, UniProt Q8N729 33-55, looked up) [Neuropeptide W23]: in experiment [13], the EC50 (RC50), arrestin, agonist mode is 2.17 nM and the EC80, arrestin, agonist mode turned out to be 8.01 nM. Moreover, in experiment [14], the EC50 (RC50), arrestin, agonist mode came to 3.62 nM and the EC80, arrestin, agonist mode came out at 12.2 nM.

B5: CCL1 (ligand, UniProt P22362 24-96, looked up)
chain: KSMQVPFSRCCFSFAEQEIPLRAILCYRNTSSICSNEGLIFKLKRGKEACALDTVGWVQRHRKMLRHCPSKRK
In experiment [15], B5 showed an EC50 (RC50), arrestin, agonist mode of 45.8 nM and an EC80, arrestin, agonist mode of 159 nM.

With ETPDCFWKYCV (peptide, UniProt O95399 114-124, looked up) [Urotensin II], in [16], the EC50 (RC50), arrestin, agonist mode came out at 1.19 nM and the EC80, arrestin, agonist mode worked out at 4.22 nM.

For QATVGDVNTDRPGLLDLK (also: synthesised on Rink amide resin, C-terminal amide not given here outright) [octadecaneuropeptide (ODN)], the % Activity, arrestin, antagonist mode, 2.5 uM was -16.8% in experiment [17] and -17% in [10].

As to QGPPISIDLSLELLRKMIEIEKQEKEKQQAANNRLLLDTI (peptide, UniProt P01144 1-40, looked up) [Sauvagine], in [18], the EC50 (RC50), arrestin, agonist mode is 5.99 nM and the EC80, arrestin, agonist mode worked out at 24.5 nM. In experiment [19], this molecule gave an EC50 (RC50), arrestin, agonist mode of 3.28 nM and an EC80, arrestin, agonist mode of 10.3 nM.

B6: CXCL13 (ligand, UniProt O43927 23-109, looked up)
chain: VLEVYYTSLRCRCVQESSVFIPRRFIDRIQILPRGNGCPRKEIIVWKKNKSIVCVDPQAEWIQRMMEVLRKRSSSTLPVPVFKRKIP
In experiment [20], B6 came in with an EC50 (RC50), arrestin, agonist mode of 21 nM and an EC80, arrestin, agonist mode of 61.2 nM.

B7: CCL27 (ligand, UniProt Q9Y4X3 25-112, looked up)
chain: FLLPPSTACCTQLYRKPLSDKLLRKVIQVELQEADGDCHLQAFVLHLAQRSICIHPQNPSLSQWFEHQERKLHGTLPKLNFGMLRKMG
In [21], B7 returned an EC50 (RC50), arrestin, agonist mode of 26.3 nM and an EC80, arrestin, agonist mode of 109 nM.
